± gives the uncertainty stated by the source.
Assay: amyloid nucleation score (Sup35N fusion, yeast selection) (log enrichment); library NNK1; higher = more nucleation; inactive = no reads after selection
How it was run: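 Sup35N fusions to peptides of 20 random codons were expressed in psi-negative yeast, induced 24 hours with 100 μM copper sulfate, and grown 7 days at 30°C on medium lacking adenine and uracil. Input and output plasmid inserts were sequenced by Illumina. The nucleation score is the DiMSum log enrichment of output over input reads, centred on the mode score of non-aggregating sequences. Sequences with under 100 input reads were excluded.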

Substance | amyloid nucleation score
QGSVSRCISEALTVRCYRTG | inactive
ASWFLVISTSLVYHSATADR | 0.211 ± 0.39
VSTGWKRLKFQLVIGCFS | 0.502 ± 0.53
CRRPEWCEWQGLQTEE | 0.266 ± 0.83
TFTPWKVDVLSRYRMQGCAQ | 0.556 ± 0.47
VEVLWVEDGSQF | -0.559 ± 0.31
CVDRQFAAVRQVTTIQTWCG | 0.983 ± 0.26
GLDKALTFKALCDLLRNSLC | 0.598 ± 1.2
FISPFCIVSYIIC | 5.846 ± 0.054
ILSERHWVFELYGLCGWRRE | 0.493 ± 0.52
PGFFWHICFG | 4.55 ± 0.082
KITIGINS | 0.4 ± 0.33
RRVNNKLRSTSGSTLTCCTY | 0.216 ± 1.4
VCTCTLVVDSTLCLGSVGTA | 2.04 ± 0.18
GMHLVKQVQGYRVRAEYSLF | 0.98 ± 0.92
LMDNCVRR | -1.06 ± 1.9
LKVLYLRSDRVSWVSKPLVI | -0.405 ± 0.87
FDVLVIFGFDTNRDACSDAL | 0.174 ± 0.38
QYCIHNNFEYDGL | -0.98 ± 0.47
FWVGP | -0.217 ± 0.51
LVGTTRLMRFWSRVMT | -0.171 ± 0.41
DNDPMYYADSIEECF | inactive
LTISTYSCWGEF | 0.456 ± 0.66
VPWSFLQRSWLDIWECPYKL | -0.276 ± 0.41

Substance | amyloid nucleation score
GVAMCEEWRLMISE | 0.185 ± 0.74
YTNLAT | 0.251 ± 0.5
RTRLFYFGPDNNRVRRRGCS | 1.13 ± 0.71
LVRRFLSWRIQSLDPIKK | -0.425 ± 0.76
SLKMMIFQRGFYTSIG | 1.75 ± 0.13
QSLDE | -0.44 ± 0.28
FSNARWASRSLKSARMACVA | 0.554 ± 0.81
SFFLIIVQREKRVRTSGCL | 0.954 ± 0.8
ITPTYGT | -0.023 ± 0.39
SLIMIGIFFYFSLSKQPRSV | 0.027 ± 1.7
PFYRNLFSWAGYILLCGCHE | -0.775 ± 0.75
VVVIFLHGIWCGLRL | -0.208 ± 0.75
HRWTLMEVYITGIALKYVVY | -0.58 ± 0.76
SSIAAIVM | 0.723 ± 0.41
VAVTSSMFFRPNFNLNTVLS | 3.69 ± 0.067
LMWCGSANMY | 0.632 ± 1.2
WHEWNSVEWVGRSWTTDFEW | inactive
FEYCCFSYEIVLELARFRGF | -0.535 ± 1.7
CVCLSVARLDYADIFVWTFM | 2.28 ± 0.13
LFCVSDSPCVCGRHSISYDW | -0.601 ± 0.9
LSLSLMLGDIPSTIMRGCFR | inactive
FTLLAFGCNSENGG | -0.462 ± 0.6
GMAWSRSLRVGHSGIMGRAV | 0.189 ± 0.22
LNWNCITCTLNFVKYVTDCR | 7.866 ± 0.046

Substance | amyloid nucleation score
VISPNSLTCCAH | -0.146 ± 0.93
WSRCSFFGHRYIKSSLLIWG | -0.139 ± 0.44
ALMNGQMVTGALITEWYNWC | 0.439 ± 0.97
ICVNESKKVFQVFIANIGRG | 4.86 ± 0.07
MNVGCSVVWIKCLNACTSKQ | 6.168 ± 0.06
IWHFASCAYGGVGSKGDPSD | 0.67 ± 0.69
MKFRINVDLLLNLDNPGIKL | 0.165 ± 0.45
MYYDMLSCFGEVKRS | -0.183 ± 0.79
FFILYINSQLIREVILRRAH | -0.128 ± 0.23
TEGLKVTLIHTTPLFCP | 0.239 ± 0.42
HCIWKMLNLFSSLRLSIKLI | -2.16 ± 2.4
NKQARVRETRVGLTCVGMLG | -0.321 ± 1.2
WILVGMGLGFHFFW | 0.86 ± 1.1
KKKRRLSSWYSHPVPSSGLL | 0.488 ± 1
VIPVFRGSSFA | -0.055 ± 0.66
TLCQFSSARACYAWVVFPTY | 1.19 ± 0.21
FGGKHFYVGGRFGLLNMCDF | -0.548 ± 2.1
QAKPIIGRRTPLNDFNSPLY | 0.15 ± 0.37
CRCFGRFLVITSI | inactive
CSHANETW | 0.593 ± 0.55
LRASAWHQFHFAV | 0.376 ± 0.78
YLNACGSSVRTKVRCSRVIL | -0.209 ± 0.91

From the supplement of paper PMC12042874
